Experimental data: US20260108618A1 (published 2026)

Legend:
[1] = molecular target: T1, Conjugate 45b (human, UniProt P0DOX5 203-448 = IgG part); assay: ELISA
[2] = molecular target: T1, Conjugate 45b; assay: ELISA: conjugate coated on the plate, His-tagged receptor titrated, anti-His HRP detection

Row | Binder | binding result [1] | binding result [2]
1 | human Fcγ RIIb (receptor) APPKAVLKLEPQWINVLQEDSVTLTCRGTHSPESDSIQWFHNGNLIPTHTQPSYRFKANNNDSGEYTCQTGQTSLSDPVHLTVLSEWLVLQTPHLEFQEGETIVLRCHSWKDKPLVKVTFFQNGKSKKFSRSDPNFSIPQANHSHSGDYHCTGNIGYTLYSSKPVTITVQAP | binds | 
2 | mouse FcγR2B/CD32b (receptor, also called murine Fcγ RIIb) THDLPKAVVKLEPPWIQVLKEDTVTLTCEGTHNPGNSSTQWFHNGRSIRSQVQASYTFKATVNDSGEYRCQMEQTRLSDPVDLGVISDWLLLQTPQLVFLEGETITLRCHSWRNKLLNRISFFHNEKSVRYHHYSSNFSIPKANHSHSGDYYCKGSLGRTLHQSKPVTITVQGPKSSR | binds | 
3 | rat FcγR3A/CD16a (receptor) GLQKAVVNLDPEWVRVLEEDCVILRCQGTFSPEDNSTKWFHNKSLISHQDANYVIQSARVKDSGMYRCQTAFSALSDPVQLDVHADWLLLQTTKRLFQEGDPIRLRCHSWRNTPVFKVTYLQNGKGKKYFHRNSELSISKATHADSGSYFCRGIIGRNNISSASLQISIGDPTSPSSFLPWHQ |  | binds
